Paper PMC12093947, “Cobalt modulates methanol turnover of the alcohol dehydrogenase in Desulfofundulus kuznetsovii strain TPOSR” (Applied and Environmental Microbiology, 2025)

System: NC(=O)c1ccc[n+]([C@@H]2O[C@H](COP(=O)(O)OP(=O)(O)OC[C@H]3O[C@@H](n4cnc5c(N)ncnc54)[C@H](O)[C@@H]3O)[C@@H](O)[C@H]2O)c1
Assay: purified protein
Conditions: without added Co, methanol 0.75-3000 mM, 50 mM Bis-tris propane, 55 °C, rapid-equilibrium, NAD+ binds first, brackets 95% confidence interval, varied: cofactor

## TPOSR Adh1 (Desulfofundulus kuznetsovii)
  Km: 0.550 [0.26, 1.3] mM
  kcat: 1.76 s⁻¹
